Test results from article PMC12325586, “OFD1 inhibition induces BRCAness to create a therapeutic vulnerability to PARP inhibition in pancreatic cancer” (Nature Communications, 2025).

T1: OFD1-Flag recombinant protein (UniProt O75665 1-1012)
T1 construct: OFD1; also called recombinant OFD1; source: HEK293S, purified (Flag agarose, eluted with Flag peptide)
T1 sequence (looked up): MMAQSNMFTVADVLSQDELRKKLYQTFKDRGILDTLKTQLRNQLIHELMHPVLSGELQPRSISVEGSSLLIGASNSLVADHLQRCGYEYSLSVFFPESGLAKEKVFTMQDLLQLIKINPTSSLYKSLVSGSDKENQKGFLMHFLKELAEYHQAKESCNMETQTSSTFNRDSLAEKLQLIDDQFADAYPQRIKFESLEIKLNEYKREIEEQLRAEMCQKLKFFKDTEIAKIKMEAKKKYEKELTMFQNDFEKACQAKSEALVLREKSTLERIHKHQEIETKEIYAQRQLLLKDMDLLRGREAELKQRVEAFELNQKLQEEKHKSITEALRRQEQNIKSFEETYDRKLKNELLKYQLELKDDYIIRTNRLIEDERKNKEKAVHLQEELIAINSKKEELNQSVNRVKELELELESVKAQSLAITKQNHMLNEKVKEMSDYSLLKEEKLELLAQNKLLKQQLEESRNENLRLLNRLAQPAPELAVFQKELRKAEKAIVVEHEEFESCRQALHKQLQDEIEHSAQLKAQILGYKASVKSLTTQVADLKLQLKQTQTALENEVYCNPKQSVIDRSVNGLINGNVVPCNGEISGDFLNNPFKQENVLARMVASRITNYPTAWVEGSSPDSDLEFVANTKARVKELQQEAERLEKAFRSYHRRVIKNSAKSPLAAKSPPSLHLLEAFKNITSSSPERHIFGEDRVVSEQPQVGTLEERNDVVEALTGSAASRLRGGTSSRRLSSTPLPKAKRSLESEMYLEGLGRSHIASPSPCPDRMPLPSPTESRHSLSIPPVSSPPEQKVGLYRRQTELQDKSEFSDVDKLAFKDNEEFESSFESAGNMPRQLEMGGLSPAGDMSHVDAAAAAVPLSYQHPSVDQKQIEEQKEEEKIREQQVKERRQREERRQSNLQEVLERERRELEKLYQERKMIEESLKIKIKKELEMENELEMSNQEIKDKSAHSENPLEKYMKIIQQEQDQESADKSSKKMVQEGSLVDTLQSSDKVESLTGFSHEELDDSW

B1: E2F4-Strep II-HA recombinant protein (natural protein)
chain: not shown
notes: E2F4; also called recombinant E2F4; source: HEK293S, purified (StrepTactin XT beads, then HA agarose, eluted with HA peptide)
B2: E2F4 peptide spanning residues 283-302 (peptide)
peptide: ELSSLPLGPTTLDTRPLQSS
notes: the TAT-conjugated form was used on cells only; source: synthetic peptide

Tests used:
[1] = target: T1, OFD1-Flag recombinant protein; assay: pull-down; 20 μg purified OFD1-Flag and E2F4-Strep II-HA with Flag agarose or HA agarose in TAP lysis buffer, 3-4 h at 4 °C; conditions: both partners purified
[2] = target: T1, OFD1-Flag recombinant protein; assay: pull-down; in vitro peptide competition: 5 μg purified OFD1-Flag and E2F4-Strep II-HA with HA agarose; candidate peptides at 200 μM, validation at 0, 12.5, 25, 50, 100 and 200 μM; overnight at 4 °C; conditions: both partners purified

Binder | binding result [1] | binding result [2]
B1 | binds | –
B2 | – | binds
